Measurements from paper PMC6038944 (Biochemistry, 2018).
Each block holds one molecule with its values, some of them ahead of it.

Legend:
[1] = target: apo-transferrin (iron-free serotransferrin) (UniProt P02787); assay: SPR; conditions: 150 mM NaCl, pH 7.4: 20 mM HEPES, pH 6.0: 20 mM PIPES
[2] = target: the molecule itself

Sequence of apo-transferrin (iron-free serotransferrin) (P02787 whole entry): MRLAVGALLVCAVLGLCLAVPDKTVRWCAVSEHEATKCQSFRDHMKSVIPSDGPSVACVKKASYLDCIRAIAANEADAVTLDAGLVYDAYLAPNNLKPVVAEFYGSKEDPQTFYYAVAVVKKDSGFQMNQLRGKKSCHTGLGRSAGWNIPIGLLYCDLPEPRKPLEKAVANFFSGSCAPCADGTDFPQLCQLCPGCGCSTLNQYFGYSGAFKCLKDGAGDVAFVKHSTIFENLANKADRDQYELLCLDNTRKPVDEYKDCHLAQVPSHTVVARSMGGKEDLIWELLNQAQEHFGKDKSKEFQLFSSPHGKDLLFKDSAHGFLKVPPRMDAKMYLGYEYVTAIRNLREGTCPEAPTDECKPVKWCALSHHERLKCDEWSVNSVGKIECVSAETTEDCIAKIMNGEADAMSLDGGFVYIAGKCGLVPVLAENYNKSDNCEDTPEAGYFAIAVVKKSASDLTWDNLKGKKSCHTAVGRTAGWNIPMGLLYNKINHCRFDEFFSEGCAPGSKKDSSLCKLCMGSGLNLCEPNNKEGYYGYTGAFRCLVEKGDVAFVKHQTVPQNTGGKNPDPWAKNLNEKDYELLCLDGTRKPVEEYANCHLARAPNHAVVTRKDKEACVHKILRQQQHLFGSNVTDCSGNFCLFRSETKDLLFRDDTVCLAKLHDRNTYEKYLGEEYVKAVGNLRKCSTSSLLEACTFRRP

ka1 ([1]; pH 6.0): 1.01e+06 M⁻¹ s⁻¹
ka2 ([1]; pH 6.0): 3.01e+06 M⁻¹ s⁻¹
kd1 ([1]; pH 6.0): 1.2 s⁻¹
ka1 ([1]; pH 7.4): 450000 M⁻¹ s⁻¹
ka2 ([1]; pH 7.4): 19000 M⁻¹ s⁻¹
kd1 ([1]; pH 7.4): 22000 s⁻¹
Molecule: EGFP-TfR1 (full-length transferrin receptor 1, EGFP fusion)

ka1 ([1]; pH 6.0): 150000 M⁻¹ s⁻¹
ka2 ([1]; pH 6.0): 34000 M⁻¹ s⁻¹
kd1 ([1]; pH 6.0): 1100 s⁻¹
kd2 ([1]; pH 6.0): 643 s⁻¹
ka1 ([1]; pH 7.4): 66000 M⁻¹ s⁻¹
ka2 ([1]; pH 7.4): 6300 M⁻¹ s⁻¹
kd1 ([1]; pH 7.4): 44000 s⁻¹
kd2 ([1]; pH 7.4): 8160 s⁻¹
Molecule: EGFP-TfR2 (full-length transferrin receptor 2, EGFP fusion)

ka1 ([1]; pH 6.0): 160000 M⁻¹ s⁻¹
ka2 ([1]; pH 6.0): 1.03e+06 M⁻¹ s⁻¹
kd1 ([1]; pH 6.0): 350 s⁻¹
kd2 ([1]; pH 6.0): 4950 s⁻¹
ka1 ([1]; pH 7.4): 510000 M⁻¹ s⁻¹
ka2 ([1]; pH 7.4): 163000 M⁻¹ s⁻¹
kd1 ([1]; pH 7.4): 2500 s⁻¹
kd2 ([1]; pH 7.4): 78300 s⁻¹
Molecule: EGFP-TfR2-TfR1HD (TfR2 chimera carrying the TfR1 helical domain) helical domain swap: TfR2 637-801 replaced by TfR1 605-760

B1: full-length EGFP-TfR2 (transferrin receptor-2) (receptor, human, UniProt Q9UP52 1-801, looked up)
chain: MERLWGLFQRAQQLSPRSSQTVYQRVEGPRKGHLEEEEEDGEEGAETLAHFCPMELRGPEPLGSRPRQPNLIPWAAAGRRAAPYLVLTALLIFTGAFLLGYVAFRGSCQACGDSVLVVSEDVNYEPDLDFHQGRLYWSDLQAMFLQFLGEGRLEDTIRQTSLRERVAGSAGMAALTQDIRAALSRQKLDHVWTDTHYVGLQFPDPAHPNTLHWVDEAGKVGEQLPLEDPDVYCPYSAIGNVTGELVYAHYGRPEDLQDLRARGVDPVGRLLLVRVGVISFAQKVTNAQDFGAQGVLIYPEPADFSQDPPKPSLSSQQAVYGHVHLGTGDPYTPGFPSFNQTQFPPVASSGLPSIPAQPISADIASRLLRKLKGPVAPQEWQGSLLGSPYHLGPGPRLRLVVNNHRTSTPINNIFGCIEGRSEPDHYVVIGAQRDAWGPGAAKSAVGTAILLELVRTFSSMVSNGFRPRRSLLFISWDGGDFGSVGSTEWLEGYLSVLHLKAVVYVSLDNAVLGDDKFHAKTSPLLTSLIESVLKQVDSPNHSGQTLYEQVVFTNPSWDAEVIRPLPMDSSAYSFTAFVGVPAVEFSFMEDDQAYPFLHTKEDTYENLHKVLQGRLPAVAQAVAQLAGQLLIRLSHDRLLPLDFGRYGDVVLRHIGNLNEFSGDLKARGLTLQWVYSARGDYIRAAEKLRQEIYSSEERDERLTRMYNVRIMRVEFYFLSQYVSPADSPFRHIFMGRGDHTLGALLDHLRLLRSNSSGTPGATSSTGFQESRFRRQLALLTWTLQGAANALSGDVWNIDNNF
stoichiometry N [2]: 2
